The values below are quoted from earlier work in paper PMC4718210.

A word on the Kd: it is the concentration at which binding is half-saturated.

Data set [1] has as its target RXFP2 receptor (Homo sapiens) (UniProt Q8WXD0).
Data set [2] has as its target RXFP4 receptor (Homo sapiens) (UniProt Q8TDU9).
Data set [3] has the same target. The source holds these as a separate data set.
Data set [4] concerns the target TRH1 receptor (Homo sapiens) (UniProt P34981).
For data set [5], the target named is RXFP1 receptor (Homo sapiens) (UniProt Q9HBX9).

Read-outs that look alike come from different tables or passages of the source.

Chain of UniProt Q8TDU9 (Q8TDU9 whole entry): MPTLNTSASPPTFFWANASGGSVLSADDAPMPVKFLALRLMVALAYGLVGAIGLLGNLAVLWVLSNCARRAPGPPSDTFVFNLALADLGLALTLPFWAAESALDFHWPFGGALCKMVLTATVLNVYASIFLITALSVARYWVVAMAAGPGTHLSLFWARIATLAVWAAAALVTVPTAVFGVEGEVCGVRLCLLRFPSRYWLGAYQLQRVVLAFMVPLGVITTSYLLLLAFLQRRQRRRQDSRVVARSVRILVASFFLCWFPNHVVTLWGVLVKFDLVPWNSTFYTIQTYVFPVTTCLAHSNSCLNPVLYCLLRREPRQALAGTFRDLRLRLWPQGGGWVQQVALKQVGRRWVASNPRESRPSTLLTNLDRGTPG
Chain of UniProt Q8WXD0 (Q8WXD0 whole entry): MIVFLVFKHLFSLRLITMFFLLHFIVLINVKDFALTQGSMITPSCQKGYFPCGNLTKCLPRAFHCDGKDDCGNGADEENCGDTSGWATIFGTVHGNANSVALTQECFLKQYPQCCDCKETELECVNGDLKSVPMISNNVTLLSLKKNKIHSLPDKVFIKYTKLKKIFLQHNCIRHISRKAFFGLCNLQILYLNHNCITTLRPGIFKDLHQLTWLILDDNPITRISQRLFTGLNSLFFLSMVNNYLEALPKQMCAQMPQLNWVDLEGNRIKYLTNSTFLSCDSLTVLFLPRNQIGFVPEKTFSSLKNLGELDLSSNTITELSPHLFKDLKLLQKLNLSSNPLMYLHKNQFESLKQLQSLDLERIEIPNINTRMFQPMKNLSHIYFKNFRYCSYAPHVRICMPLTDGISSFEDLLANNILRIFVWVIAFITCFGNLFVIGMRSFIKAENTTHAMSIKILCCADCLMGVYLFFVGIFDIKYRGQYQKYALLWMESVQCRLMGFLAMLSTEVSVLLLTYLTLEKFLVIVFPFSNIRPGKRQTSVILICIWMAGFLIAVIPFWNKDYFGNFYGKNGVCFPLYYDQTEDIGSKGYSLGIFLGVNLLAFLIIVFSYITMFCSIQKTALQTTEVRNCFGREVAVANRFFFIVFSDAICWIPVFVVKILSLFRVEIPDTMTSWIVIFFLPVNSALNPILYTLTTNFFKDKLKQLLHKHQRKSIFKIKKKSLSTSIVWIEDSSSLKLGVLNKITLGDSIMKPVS
Chain of UniProt P34981 (P34981 whole entry): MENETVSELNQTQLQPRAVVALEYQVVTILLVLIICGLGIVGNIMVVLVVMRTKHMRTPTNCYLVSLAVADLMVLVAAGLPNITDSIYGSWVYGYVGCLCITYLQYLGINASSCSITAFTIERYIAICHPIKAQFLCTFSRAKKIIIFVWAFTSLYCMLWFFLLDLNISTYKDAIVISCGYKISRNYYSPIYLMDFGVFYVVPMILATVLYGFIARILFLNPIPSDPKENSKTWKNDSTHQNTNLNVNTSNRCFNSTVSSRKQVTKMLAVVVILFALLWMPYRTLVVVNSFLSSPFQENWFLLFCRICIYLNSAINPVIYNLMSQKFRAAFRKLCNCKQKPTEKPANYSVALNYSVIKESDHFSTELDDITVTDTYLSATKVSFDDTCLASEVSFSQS
Chain of UniProt Q9HBX9 (Q9HBX9 whole entry): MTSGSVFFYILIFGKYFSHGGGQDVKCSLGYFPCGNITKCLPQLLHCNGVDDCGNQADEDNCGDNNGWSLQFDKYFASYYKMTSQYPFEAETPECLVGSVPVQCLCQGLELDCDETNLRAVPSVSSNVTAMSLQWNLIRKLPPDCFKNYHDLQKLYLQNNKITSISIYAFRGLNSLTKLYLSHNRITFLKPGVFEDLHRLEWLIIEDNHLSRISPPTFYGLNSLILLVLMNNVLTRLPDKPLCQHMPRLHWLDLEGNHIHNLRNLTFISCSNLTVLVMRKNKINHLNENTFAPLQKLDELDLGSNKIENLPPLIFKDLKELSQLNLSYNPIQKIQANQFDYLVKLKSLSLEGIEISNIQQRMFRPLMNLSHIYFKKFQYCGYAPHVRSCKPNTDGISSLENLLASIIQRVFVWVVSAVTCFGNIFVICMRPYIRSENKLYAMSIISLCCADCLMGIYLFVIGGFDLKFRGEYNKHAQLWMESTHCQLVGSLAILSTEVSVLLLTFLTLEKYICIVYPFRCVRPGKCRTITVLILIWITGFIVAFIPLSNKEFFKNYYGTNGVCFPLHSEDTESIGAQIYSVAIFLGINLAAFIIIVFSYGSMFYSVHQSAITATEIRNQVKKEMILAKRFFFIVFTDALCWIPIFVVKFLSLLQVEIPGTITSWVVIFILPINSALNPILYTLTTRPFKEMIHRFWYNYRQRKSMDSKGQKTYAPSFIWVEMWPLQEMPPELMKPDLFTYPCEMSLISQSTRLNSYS

Turning to INSL3 (from UniProt P51460), the Kd in data set [1] was 1 nM.
As for INSL5 (from UniProt Q9WUG6), the dissociation constant Kd in data set [2] was 5 nM.
Turning to INSL5 (from UniProt Q9Y5Q6), the dissociation constant (Kd) in data set [3] is 5.01 nM.
Regarding TRH (from UniProt P20396), the Kd in data set [4] is 13 nM.
In the case of relaxin (from UniProt P04090), in data set [5], the Kd is 0.5 nM.
